According to patent US20260201396, “New LoxPsym Sites for Large-Scale Orthogonal Cre-Mediated Recombination” (VIB VZW, published 2026):
Changes are numbered by the printed parent chain.

T1: Cre recombinase (Punavirus P1)
T1 chain: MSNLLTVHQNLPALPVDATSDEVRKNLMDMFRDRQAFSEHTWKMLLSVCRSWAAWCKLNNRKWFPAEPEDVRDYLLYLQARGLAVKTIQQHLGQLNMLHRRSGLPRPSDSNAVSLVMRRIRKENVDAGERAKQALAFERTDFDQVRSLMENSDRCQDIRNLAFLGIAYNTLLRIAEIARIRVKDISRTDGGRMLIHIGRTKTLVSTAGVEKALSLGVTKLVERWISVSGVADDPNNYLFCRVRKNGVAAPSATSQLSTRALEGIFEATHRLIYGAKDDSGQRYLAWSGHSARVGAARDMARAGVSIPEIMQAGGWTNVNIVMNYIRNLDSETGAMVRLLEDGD

B1: LoxPsym-CAG (dsDNA)
DNA 1: ATAACTTCGTATACAGTACTGTATACGAAGTTAT
DNA 2: B1 DNA 1
B2: LoxPsym-CGG (dsDNA)
DNA 1: B1 DNA 1 with A15G, T20C
DNA 2: B1 DNA 1 with A15G, T20C
B3: LoxPsym-ACT (dsDNA)
DNA 1: ATAACTTCGTATAACTTAAGTTATACGAAGTTAT
DNA 2: B3 DNA 1
B4: LoxPsym-CAT (dsDNA)
DNA 1: B1 DNA 1 with G16T, C19A
DNA 2: B1 DNA 1 with G16T, C19A
B5: LoxPsym-GGT (dsDNA)
DNA 1: B3 DNA 1 with A14G, C15G, G20C, T21C
DNA 2: B3 DNA 1 with A14G, C15G, G20C, T21C
B6: LoxPsym-GCG (dsDNA)
DNA 1: B3 DNA 1 with A14G, T16G, A19C, T21C
DNA 2: B3 DNA 1 with A14G, T16G, A19C, T21C
B7: LoxPsym-GAT (dsDNA)
DNA 1: B3 DNA 1 with A14G, C15A, G20T, T21C
DNA 2: B3 DNA 1 with A14G, C15A, G20T, T21C
B8: LoxPsym-GCT (dsDNA)
DNA 1: B3 DNA 1 with A14G, T21C
DNA 2: B3 DNA 1 with A14G, T21C
B9: LoxPsym-AAT (dsDNA)
DNA 1: B3 DNA 1 with C15A, G20T
DNA 2: B3 DNA 1 with C15A, G20T
B10: LoxPsym-CCG (dsDNA)
DNA 1: B1 DNA 1 with A15C, T20G
DNA 2: B1 DNA 1 with A15C, T20G
B11: LoxPsym-TTA (dsDNA)
DNA 1: ATAACTTCGTATATTATATAATATACGAAGTTAT
DNA 2: B11 DNA 1
B12: LoxPsym-GGA (dsDNA)
DNA 1: B11 DNA 1 with T14G, T15G, A20C, A21C
DNA 2: B11 DNA 1 with T14G, T15G, A20C, A21C
B13: LoxPsym-TTG (dsDNA)
DNA 1: B11 DNA 1 with A16G, T19C
DNA 2: B11 DNA 1 with A16G, T19C
B14: LoxPsym-TGT (dsDNA)
DNA 1: B3 DNA 1 with A14T, C15G, G20C, T21A
DNA 2: B3 DNA 1 with A14T, C15G, G20C, T21A
B15: LoxPsym-TGC (dsDNA)
DNA 1: B11 DNA 1 with T15G, A16C, T19G, A20C
DNA 2: B11 DNA 1 with T15G, A16C, T19G, A20C
B16: LoxPsym-TAT (dsDNA)
DNA 1: B3 DNA 1 with A14T, C15A, G20T, T21A
DNA 2: B3 DNA 1 with A14T, C15A, G20T, T21A
B17: LoxPsym-TAC (dsDNA)
DNA 1: B1 DNA 1 with C14T, G16C, C19G, G21A
DNA 2: B1 DNA 1 with C14T, G16C, C19G, G21A
B18: LoxPsym-TAG (dsDNA)
DNA 1: B1 DNA 1 with C14T, G21A
DNA 2: B1 DNA 1 with C14T, G21A
B19: LoxPsym-TCC (dsDNA)
DNA 1: B3 DNA 1 with A14T, T16C, A19G, T21A
DNA 2: B3 DNA 1 with A14T, T16C, A19G, T21A

Target: T1, Cre recombinase
Assay: cell_activity; as above
Excerpt: Similar to the development of the original LoxPsym site by Hoess et al. (1986 J Cell Biochem), we edited the spacer of the LoxP site to obtain new non-directional recombination sites. In doing so, we focused on altering the first three nucleotides of the spacer (FIG. 2), as it was shown before that changing the nucleotides at position 4 and 5 of the spacer (T and A respectively) prevents recombination (Hoess et al 1986). The last three nucleotides were adapted accordingly to ensure the spacer remained palindromic. As such, we were able to design maximally 63 new potential LoxPsym sites. To test if the Cre enzyme was still able to recombine the new LoxPsym variants, we conducted a fluorescent-based assay in yeast via genomic integration of a fluorescence cassette which was flanked by identical LoxPsym variants at both sites (FIGS. 3A and 3C). Recombination of functional LoxPsym variants enables the deletion of the fluorescence cassette. The fraction of non-fluorescent cells in the population after induction of Cre-mediated recombination, was used to determine the recombination efficiency of the new LoxPsym sites. To verify if this set-up is valid for estimation of the recombination efficiency, the dual-fluorescent-reporter system shown in FIG. 3A was used to assess the frequency of inversion/deletion over time. […] Recombination efficiencies largely altered between different LoxPsym variants (Table 1). 63 new LoxPsym variants were obtained with altering recombination efficiencies ranging from 13% to 89%.
In the case of B1, the activity is reported as 79.9%. With B2 the activity was 81.5%. For B3, the activity was 70.5%. B4 showed an activity of 79.1%. With B5 the activity was 38%. With B6 the activity was 79.2%. For B7, the activity was 36.9%. Binder B8 has an activity of 37.2%. In the case of B9, the activity is reported as 71.1%. B10 was tested, and the activity was 76%. B11 was tested, and the activity was 35.8%. B12 was tested, and the activity was 37.1%. Binder B13 has an activity of 80.6%. In the case of B14, the activity is reported as 82.4%. B15 showed an activity of 72%. With B16 the activity was 89.3%. Work on B17 yielded an activity of 75.3%. Binder B18 has an activity of 70.3%. For B19, the activity was 80%.
